From patent US20180036405A1 (Regeneron, published 2018)
Blank lines part the entries; values can stand above or below the binder they belong to.

Tests used:
[1] = biological target: T1, EGFR on A431 epidermoid carcinoma cells (human, UniProt P00533 25-1210); test: cell-based or functional assay
[2] = biological target: T1, EGFR on A431 epidermoid carcinoma cells; test: cell-based or functional assay; remark: listed apart in the source
[3] = biological target: T2, human dimeric EGFR (EGFR.mFc) (human); test: SPR 37C, mAb captured by anti-human Fc, EGFR.mFc analyte
T2 construct: Soluble dimeric EGFR construct
Description: (§1) Different concentrations of human monomeric (EGFR.mmh; SEQ ID NO:386) and dimeric (EGFR.mFc; SEQ ID NO:387) proteins were injected over the anti-EGFR monoclonal antibody captured surface at a flow rate of 50 μI/min. Antibody-antigen association was monitored for 4-5 minutes while dissociation of antigen from the captured monoclonal antibody surface was monitored for 10 min. Kinetic association (kₐ) and dissociation (kd) rate constants were determined by processing and fitting the data to a 1:1 binding model using Scrubber 2.0 curve fitting software.

[4] = biological target: T3, human monomeric EGFR (EGFR.mmh) (human, UniProt P00533 25-647); test: SPR 37C, mAb captured by anti-human Fc, EGFR.mmh analyte
T3 construct: Soluble monomeric EGFR construct
Description: as §1

IC50 of A431 Proliferation [1]: 2.24e-10 Molar | ADCC EC50 [2]: 2.51e-13 Molar | Kd [3]: 0.0203 nM | koff [3]: 3.16e-05 s⁻¹ | kon [3]: 1.55e+06 M⁻¹ s⁻¹ | t1/2 [3]: 6.1 h | Kd [4]: 5.27 nM | koff [4]: 0.00284 s⁻¹ | kon [4]: 539000 M⁻¹ s⁻¹ | t1/2 [4]: 0.0667 h
B1: H1H116N (antibody, human IgG1, V domains shown)
VH: QVQLQESGPGLVKPSQTLSLTCTVSGGSVSSGDYYWSWIRQHPGKGLDWIGHIYYSGSTYYNPSLKSRVTISLDTSKNQFSLKLNSVTAADTAVYYCARTAITGTMDYWGQGTLVTVSS
VL: EIVMTQSPATLSVSAGERATLSCRASQSVSSNLAWFQQKPGQAPRLLIYDASTRATGIPARFSGSGSGTEFTLIISSLQSEDFALYYCQQYNSWWTFGQGTKVEIK
notes: Tested in human IgG1 Fc format (H1H); also called H1M116N
Maximum Cell Killing (%) [2]: 29%

IC50 of A431 Proliferation [1]: 1.84e-09 Molar | ADCC EC50 [2]: 4.61e-11 Molar | Kd [3]: 0.00799 nM | koff [3]: 2.47e-05 s⁻¹ | kon [3]: 3.09e+06 M⁻¹ s⁻¹ | t1/2 [3]: 7.8 h | Kd [4]: 0.848 nM | koff [4]: 0.000789 s⁻¹ | kon [4]: 930000 M⁻¹ s⁻¹ | t1/2 [4]: 0.25 h
B2: H1H134P (antibody, human IgG1, V domains shown)
VH: EVQLVESGGGLVQPGGSLRLSCAASGFTFDDFAIHWVRQTPGRGLEWVSGLSWNSAYIAYADSVKGRFTISRDNAKDSLYLQMNSLRPEDTALYYCVKDTDIHLWFLFDFWGQGTLVTVSS
VL: not shown
notes: Human IgG1 Fc (H1H)
Maximum Cell Killing (%) [2]: 33%
